How the values were obtained:
[1] = biological target: biotinylated refolded A*01:01/b2m with … (Ala 2) (human, UniProt P61769 21-119); assay: BLI (Octet), biotinylated pHLA on streptavidin sensor, antibody as analyte;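 also: pHLA biotinylated through a C-terminal AviTag for uniform orientation, sensor data background-normalized, rate constants from global 1:1 kinetic fitting in Octet software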
Protocol: (§1) All the assay conditions were prepared in a volume of 200 μL. The pHLA complex biotinylated at the C-terminal AviTag was used to ensure uniform directionality of the protein. […] Using the ForteBio Data Analysis suite, the data was normalized to the association curves followed by background normalization. Curve fitting using global fitting of the sensor data with the Octet™ software using 1:1 kinetic model with errors within 10%, X2below 3, and R2above 0.9 to determine the association and dissociation constants.

[2] = biological target: T1, biotinylated refolded G2-pHLA (A*01:01/b2m/…) (human, biotinylated at the C-terminal AviTag); assay: as above
T1 construct: Soluble complex caught on streptavidin sensors or MSD plates; also called G2-peptide A*01:01/b2m complex; WT
Protocol: as §1

[3] = biological target: biotinylated refolded A*01:01/b2m with … (Ala 1) (human, UniProt P61769 21-119); assay: as above
Protocol: as §1

[4] = biological target: biotinylated refolded A*01:01/b2m with […] (Ala 3) (human, UniProt P61769 21-119, biotinylated at the C-terminal AviTag); assay: as above
Protocol: as §1

[5] = biological target: biotinylated refolded A*01:01/b2m with … (Ala 5) (human, UniProt P61769 21-119); assay: as above
Protocol: as §1

[6] = biological target: T2, biotinylated refolded A*01:01/b2m with … (alanine at position 9) (human, UniProt P61769 21-119); assay: as above
Protocol: as §1

[7] = biological target: biotinylated refolded A*01:01/b2m with … (Ala 4) (human, UniProt P61769 21-119); assay: as above
Protocol: as §1

[8] = biological target: biotinylated refolded A*01:01/b2m with … (Ala 6) (human, UniProt P61769 21-119); assay: as above
Protocol: as §1

[9] = biological target: biotinylated refolded A*01:01/b2m with … (alanine at position 8) (human, UniProt P61769 21-119); assay: as above
Protocol: as §1

[10] = biological target: T2, biotinylated refolded A*01:01/b2m with …; assay: BLI (Octet), biotinylated pHLA on streptavidin sensor
Protocol: as §1

B1: monovalent Format 3-E07-hOKT3a antibody (bispecific antibody, V domains shown)
VH 1: QVQLVQSGAEVKKPGASVKVSCKASGFTFTNYLIHWVRQAPGQGLEWMGWINPNSGGTNYAQRLQGRVTMTRDTSTSTVYMELSSLRSEDTAVYYCARDYGAGNDYWGQGTLVTVSS
VL 1: DIQMTQSPSSLSASVGDRVTITCRASQEIRRWLAWYQQKPGKAPKLLIYAASNLQSGVPSRFSGSGSGTDFTLTISSLQPEDFATYYCQQSYSTPYTFGQGTKLEIK
VH 2: QVQLVQSGAEVKKPGASVKVSCKASGYTFTRYTMHWVRQAPGQGLEWMGYINPSRGYTNYNQKFKDRVTLTTDKSSSTAYMELSSLRSEDTAVYYCARYYDDHYSLDYWGQGTLVTVSS
VL 2: DIQMTQSPSSLSASVGDRVTITCSASSSVSYMNWYQQKPGKAPKRLIYDTSKLASGVPSRFSGSGSGTDFTLTISSLQPEDFATYYCQQWSSNPFTFGQGTKLEIK
B1 was tested, and the Kd [1] was 1.5 nM, the “Max Response (nm)” value [1] was 0.24 nm and the Kd [2] was 1.2 nM. The “Max Response (nm)” value [2] was 0.24 nm, the “Fold change in affinity (against WT)” value [3] was 2.5 fold and the Kd [3] was 3 nM. The “Max Response (nm)” value [3] was 0.26 nm, the “Fold change in Response (against WT)” value [4] was 1.6 fold and the “Fold change in affinity (against WT)” value [4] was 14.2 fold. The Kd [4] was 17 nM, the “Max Response (nm)” value [4] was 0.15 nm and the “Fold change in affinity (against WT)” value [5] was 13.3 fold. The Kd [5] was 16 nM, the “Max Response (nm)” value [5] was 0.21 nm and the “Max Response (nm)” value [6] was 0 nm. The “Fold change in affinity (against WT)” value [7] was 7.3 fold, the Kd [7] was 8.7 nM and the “Max Response (nm)” value [7] was 0.24 nm. The “Fold change in Response (against WT)” value [8] was 2.7 fold, the “Fold change in affinity (against WT)” value [8] was 13.3 fold and the Kd [8] was 16 nM. The “Max Response (nm)” value [8] was 0.09 nm, the “Fold change in affinity (against WT)” value [9] was 6.7 fold and the Kd [9] was 8 nM. The “Max Response (nm)” value [9] was 0.24 nm and the binding result [10] was “no binding (tested: typically 500-0 nM antibody)”.
